Laboratory results reported in US20090311265A1 (CRUCELL HOLLAND B V, published 2009).
Residue numbers refer to the chain shown, from its start.

Legend:
[1] = target: T1, soluble recombinant HA (sHA) of H5N1TV (influenza A virus A/Vietnam/1194/2004 …, UniProt Q6J8F6 17-528); test: immunoblot (data not shown)
[2] = target: recombinant HA, subtype H3 (A/Wyoming/3/2003(H3N2)) (influenza A virus A/Wyoming/3/2003 …); test: ELISA, coated HA, IgG 5 µg/ml
[3] = target: T2, recombinant HA, subtype H5 (A/Vietnam/1203/2004 (H5N1)) (influenza A virus A/Vietnam/1203/2004 …, UniProt Q80A26 6-554); test: ELISA, coated HA, IgG 5 µg/ml
[4] = target: recombinant HA, subtype H1 (A/New Caledonia/20/99 (H1N1)) (influenza A virus A/New Caledonia/20/99 …, UniProt Q289M7 18-565); test: ELISA, coated HA, IgG 5 µg/ml
[5] = target: T2, recombinant HA, subtype H5 …; test: competition ELISA on coated HA, IgG 10 µg/ml, competitor: phage antibodies
[6] = target: T1, soluble recombinant HA (sHA) of H5N1TV; test: immunoblot, reducing SDS-PAGE
[7] = target: full-length HA from isolate A/Vietnam/1194/2004 (H5N1TV) on PER.C6 cells (influenza A virus A/Vietnam/1194/2004 …, UniProt Q80A26 6-554); test: flow cytometry, transfected PER.C6 cells

B1: CR6296 (antibody, V domains shown)
VH: EVQLVETGAEVKKPGASVKVSCKASGYTFTSYYMHWVRQAPGQGLEWMGWINPNSGGTNYAQKFQGRVTMTRDTSISTAYMELSRLRSDDTAVYYCAREGKWGPQAAFDIWGQGTMVTVSS
VL: EIVMTQSPGTLSLSPGERATLSCRASQSVSSSYLAWYQQKPGQAPRLLIYDASSRATDIPDRFSGSGSGTDFTLTISRLEPEDFAVYYCQQYGSSLWTFGQGTKVEIKR
binding result [1]: binds

B2: CR6343 (antibody, V domains shown)
VH: QVQLVQSGAEVKKPGSSVKVSCKASGVTFSYYAMSWVRQAPGQGLEWMGGISPMFGTTTYAQKFQGRVTITADDSTSTAYMEVRSLRSEDTAVYYCARSSNYYDSVYDYWGQGTLVTVSS
VL: QSVVTQPPSESVAPGQTARITCGGHNIGSNSVHWYQQKPGQAPVLVVYDNSDRPSGIPERFSGSNSGNTATLTISRVEAGDEADYYCQVWGSSSDHYVFGTGTKVTVLG
OD 492 nm [2]: 0.07 OD 492 nm | OD 492 nm [3]: 0.76 OD 492 nm | OD 492 nm [4]: 1.28 OD 492 nm | residual binding of phage antibody in the presence of the IgG [5]: > 25%

B3: CR6339 (antibody, V domains shown)
VH: EVQLVESGAEVKKPGSSVKVSCKASGGIFNSYAISWVRQAPGQGLEWMGGIIAIFHTPKYAQKFQGRVTITADESTNTAYMELRSLKSEDTALYYCARGSTYDFSSGLDYWGQGTLVTVSS
VL: QAGLTQPPSVSVAPGQTARITCGGNNIGSKSVHWYQQKPGQAPVLVVYDDSDRPSGIPERFSGSNSGNTATLTISRVEAGDEADYYCQVWDSSSDHVVFGGGTKLTVLG
OD 492 nm [2]: 0.07 OD 492 nm | OD 492 nm [3]: 0.81 OD 492 nm | residual binding of phage antibody in the presence of the IgG [5]: > 25%

B4: CR6301 (antibody, V domains shown)
VH: EVQLVESGGGLVQPGGSLRLSCAASGFTFSIYAMSWVRQAPGKGLEWVSAISSSGDSTYYADSVKGRFTISRDNARNTLYLQMNSLRAEDTAVYYCARAYGYTFDPWGQGTLVTVSS
VL: not shown
binding result [1]: binds

B5: CR6307 (antibody, V domains shown)
VH: QVQLVQSGGGLVKPGGSLRLSCAASGFTFSSYSMNWVRQAPGKGLEWVSSISSSSSYIYYVDSVKGRFTISRDNAKNSLYLQMNSLRAEDTAVYYCARGGGSYGAYEGFDYWGQGTLVTVSS
VL: EIVLTQSPGTLSLSPGERATLSCRASQRVSSYLAWYQQKPGQAPRLLIYGASTRAAGIPDRFSGSGSGTDFTLTISRLEPEDSAVYYCQQYGRTPLTFGGGTKVEIKR
binding result [6]: binds | OD 492 nm [2]: 0.11 OD 492 nm | OD 492 nm [3]: 0.99 OD 492 nm | flow cytometry signal at 0.1 µg/ml [7]: 82.4 | flow cytometry signal at 1 µg/ml [7]: 267 | flow cytometry signal at 10 µg/ml [7]: 485

B6: CR6272 (antibody, V domains shown)
VH: QMQLVQSGAEVKKPGSSVKVSCKASGGTFSSYAITWVRQAPGQGLEWMGGIIGMFGSTNYAQNFQGRVTITADESTSTAYMELSSLRSEDTAVYYCARSTGYYPAYLHHWGQGTLVTVSS
VL: QSALTQPRSVSGSPGQSVTISCTGTSSDVGGYNYVSWYQQHPGKAPKLMIYDVSKRPSGVPDRFSGSKSGNTASLTISGLQAEDEADYYCSSYTSSSTHVFGTGTKVTVLG
OD 492 nm [2]: 0.07 OD 492 nm | OD 492 nm [3]: 0.58 OD 492 nm | OD 492 nm [4]: 0.81 OD 492 nm | residual binding of phage antibody in the presence of the IgG [5]: > 25%

B7: CR6323 (antibody, V domains shown)
VH: B6 VH with Q1E, M2V, Q6E, A33G, T35S, G50D, V68L, T100S, H108P
VL: not shown
binding result [6]: binds | OD 492 nm [2]: 0.07 OD 492 nm | OD 492 nm [3]: 1.89 OD 492 nm | OD 492 nm [4]: 2.32 OD 492 nm | flow cytometry signal at 0.1 µg/ml [7]: 33.4 | flow cytometry signal at 1 µg/ml [7]: 117 | flow cytometry signal at 10 µg/ml [7]: 445
